The values that follow come from publication doi:10.1101/2024.02.21.581378 (bioRxiv, 2024).

For experiment [1], the target named is macaque TMPRSS2 N469Y on transfected 293T cells (macaque).
For experiment [2], the target named is T1, TMPRSS2^S441A (human TMPRSS2 residues 107-492, zymogen, uncleaved) (human, UniProt O15393 107-492, S441A). The experiment in a line: crystal structure.
The target of experiment [3] is cleaved soluble TMPRSS2^S441A (TMPRSS2^S441A-Cl) (human, UniProt O15393 107-255; O15393 256-492, S441A). The experiment can be described thus: BLI.
The target in experiment [4] is T1, TMPRSS2^S441A (human TMPRSS2 residues …). The experiment can be described thus: BLI.

cleaved soluble TMPRSS2^S441A (TMPRSS2^S441A-Cl), sequence (O15393 107-255, chain 1 of 2): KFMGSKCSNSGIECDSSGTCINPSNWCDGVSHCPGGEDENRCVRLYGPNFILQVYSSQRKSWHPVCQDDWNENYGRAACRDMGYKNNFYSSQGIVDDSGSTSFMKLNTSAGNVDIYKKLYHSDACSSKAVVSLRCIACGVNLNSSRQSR
cleaved soluble TMPRSS2^S441A (TMPRSS2^S441A-Cl), sequence (O15393 256-492 S441A, chain 2 of 2): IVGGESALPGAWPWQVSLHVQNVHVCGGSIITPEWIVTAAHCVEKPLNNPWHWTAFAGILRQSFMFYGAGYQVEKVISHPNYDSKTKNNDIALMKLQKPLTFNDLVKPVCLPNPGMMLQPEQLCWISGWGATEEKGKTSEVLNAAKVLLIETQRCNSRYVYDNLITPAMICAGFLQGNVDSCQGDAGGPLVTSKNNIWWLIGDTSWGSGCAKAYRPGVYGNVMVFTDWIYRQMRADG
T1 sequence (O15393 107-492 S441A): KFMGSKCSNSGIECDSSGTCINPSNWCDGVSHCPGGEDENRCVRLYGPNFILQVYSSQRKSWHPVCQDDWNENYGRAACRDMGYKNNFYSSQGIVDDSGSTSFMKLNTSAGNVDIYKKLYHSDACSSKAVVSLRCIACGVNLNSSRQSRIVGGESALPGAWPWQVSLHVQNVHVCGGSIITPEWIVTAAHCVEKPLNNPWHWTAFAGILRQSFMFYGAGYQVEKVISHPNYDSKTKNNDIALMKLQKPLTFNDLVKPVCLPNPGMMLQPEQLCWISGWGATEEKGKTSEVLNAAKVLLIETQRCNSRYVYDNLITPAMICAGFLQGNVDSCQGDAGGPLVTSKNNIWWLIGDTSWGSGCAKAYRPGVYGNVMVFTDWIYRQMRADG

Turning to “soluble biotinylated HKU1B spike (from UniProt Q0ZME7) (natural protein)”, the entry of HKU1B pseudoviruses, fold increase against wild-type macaque TMPRSS2 in experiment [1] turned out to be 10 fold.

B1: HKU1B RBD and subdomain-1 (RBD-SD1, residues 307-675 of the spike protein) (domain or fragment)
chain: SGFTVKPVATVYRRIPNLPDCDIDNWLNNVSVPSPLNWERRIFSNCNFNLSTLLRLVHVDSFSCNNLDKSKIFGSCFNSITVDKFAIPNRRRDDLQLGSSGFLQSSNYKIDISSSSCQLYYSLPLVNVTINNFNPSSWNRRYGFGSFNLSSYDVVYSDHCFSVNSDFCPCADPSVVNSCAKSKPPSAICPAGTKYRHCDLDTTLYVKNWCRCSCLPDPISTYSPNTCPQKKVVVGIGEHCPGLGINEEKCGTQLNHSSCFCSPDAFLGWSFDSCISNNRCNIFSNFIFNGINSGTTCSNDLLYSNTEISTGVCVNYDLYGITGQGIFKEVSAAYYNNWQNLLYDSNGNIIGFKDFLTNKTYTILPCYSG
For the molecule B1, the binding result in experiment [2] is reported as “binds”.

B2: HKU1B RBD (residues 330-614 of the spike protein), wild type (domain or fragment)
chain: DNWLNNVSVPSPLNWERRIFSNCNFNLSTLLRLVHVDSFSCNNLDKSKIFGSCFNSITVDKFAIPNRRRDDLQLGSSGFLQSSNYKIDISSSSCQLYYSLPLVNVTINNFNPSSWNRRYGFGSFNLSSYDVVYSDHCFSVNSDFCPCADPSVVNSCAKSKPPSAICPAGTKYRHCDLDTTLYVKNWCRCSCLPDPISTYSPNTCPQKKVVVGIGEHCPGLGINEEKCGTQLNHSSCFCSPDAFLGWSFDSCISNNRCNIFSNFIFNGINSGTTCSNDLLYSNTEI
On to B2, for which, in experiment [3], the Kd was 0.03 µM.

B3: HKU1B RBD (residues 330-614) L510R (domain or fragment)
chain: DNWLNNVSVPSPLNWERRIFSNCNFNLSTLLRLVHVDSFSCNNLDKSKIFGSCFNSITVDKFAIPNRRRDDLQLGSSGFLQSSNYKIDISSSSCQLYYSLPLVNVTINNFNPSSWNRRYGFGSFNLSSYDVVYSDHCFSVNSDFCPCADPSVVNSCAKSKPPSAICPAGTKYRHCDLDTTRYVKNWCRCSCLPDPISTYSPNTCPQKKVVVGIGEHCPGLGINEEKCGTQLNHSSCFCSPDAFLGWSFDSCISNNRCNIFSNFIFNGINSGTTCSNDLLYSNTEI
In the case of B3, the binding result in experiment [3] and in experiment [4] was “binds” in each case.

B4: HKU1B RBD (residues 330-614) K487A (domain or fragment)
chain: DNWLNNVSVPSPLNWERRIFSNCNFNLSTLLRLVHVDSFSCNNLDKSKIFGSCFNSITVDKFAIPNRRRDDLQLGSSGFLQSSNYKIDISSSSCQLYYSLPLVNVTINNFNPSSWNRRYGFGSFNLSSYDVVYSDHCFSVNSDFCPCADPSVVNSCAASKPPSAICPAGTKYRHCDLDTTLYVKNWCRCSCLPDPISTYSPNTCPQKKVVVGIGEHCPGLGINEEKCGTQLNHSSCFCSPDAFLGWSFDSCISNNRCNIFSNFIFNGINSGTTCSNDLLYSNTEI
B4: the binding result in experiment [3] and in experiment [4] was “binds” in each case.

B5: HKU1B RBD (residues 330-614) S529A (domain or fragment)
chain: DNWLNNVSVPSPLNWERRIFSNCNFNLSTLLRLVHVDSFSCNNLDKSKIFGSCFNSITVDKFAIPNRRRDDLQLGSSGFLQSSNYKIDISSSSCQLYYSLPLVNVTINNFNPSSWNRRYGFGSFNLSSYDVVYSDHCFSVNSDFCPCADPSVVNSCAKSKPPSAICPAGTKYRHCDLDTTLYVKNWCRCSCLPDPISTYAPNTCPQKKVVVGIGEHCPGLGINEEKCGTQLNHSSCFCSPDAFLGWSFDSCISNNRCNIFSNFIFNGINSGTTCSNDLLYSNTEI
Consider B5, for which the binding result in experiment [3] is on record as “binds”.

B6: HKU1B RBD (residues 330-614) Y528A (domain or fragment)
chain: DNWLNNVSVPSPLNWERRIFSNCNFNLSTLLRLVHVDSFSCNNLDKSKIFGSCFNSITVDKFAIPNRRRDDLQLGSSGFLQSSNYKIDISSSSCQLYYSLPLVNVTINNFNPSSWNRRYGFGSFNLSSYDVVYSDHCFSVNSDFCPCADPSVVNSCAKSKPPSAICPAGTKYRHCDLDTTLYVKNWCRCSCLPDPISTASPNTCPQKKVVVGIGEHCPGLGINEEKCGTQLNHSSCFCSPDAFLGWSFDSCISNNRCNIFSNFIFNGINSGTTCSNDLLYSNTEI
Consider B6, for which the binding result in experiment [3] and in experiment [4] was “binds” throughout.
